In patent US20230357429A1 (JANUX THERAPEUTICS, published 2023):
Where no end group is shown, it is not given here.

T1: Peptide-19 (cysteine pairing not given here; also: biotinylated (site not given here))
T1 peptide: PDFCQLYNWPVCAG

T2: Peptide-22 (cysteine pairing not given here; also: biotinylated (site not given here))
T2 peptide: VDFCTIYKWPVCEG

T3: Peptide-21 (cysteine pairing not given here; also: biotinylated (site not given here))
T3 peptide: IDFCSLYQWPVCGT

T4: Peptide-24 (cysteine pairing not given here; also: biotinylated (site not given here))
T4 peptide: SVLFCVKNLYCWVT

T5: Peptide-15 (cysteine pairing not given here; also: biotinylated (site not given here))
T5 peptide: LDFCKLYQWPVCFT

T6: Peptide-16 (cysteine pairing not given here; also: biotinylated (site not given here))
T6 peptide: IDFCLLYDWPVCAS

T7: Peptide-11 (cysteine pairing not given here; also: biotinylated (site not given here))
T7 peptide: VDFCALYNWPVCET

T8: Peptide-30 (cysteine pairing not given here; also: biotinylated, site not given here)
T8 peptide: TSLICFRNVYCWNV

T9: Peptide-46 (cysteine pairing not given here; also: biotinylated, site not given here)
T9 peptide: VEFCAIYSWPICKI

T10: Peptide-29 (cysteine pairing not given here; also: biotinylated, site not given here)
T10 peptide: SYLVCVKNVYCWTA

T11: Peptide-25 (cysteine pairing not given here; also: biotinylated (site not given here))
T11 peptide: VDFCKIYSWPVCHQ

T12: Peptide-58 (cysteine pairing not given here; also: biotinylated, site not given here)
T12 peptide: VEICKQWFYTVCLS

T13: Peptide-44 (cysteine pairing not given here; also: biotinylated, site not given here)
T13 peptide: VEFCKQWTWFGCMT


Columns and labels:
[1] = target: T1, Peptide-19; assay: ELISA: biotinylated peptide captured on neutravidin plate, Fab titrated, HRP secondary antibody
Description: (§1) Binding was measured in a standard ELISA format. […] Bound TBDs were detected using a standard horse radish peroxidase conjugate secondary antibody. The ELISA signal was plotted versus the log-scale concentration of TBD. The concentrations of TBD required to observe half maximal binding signal (EC₅₀s) were calculated using Graphpad Prism software.

[2] = target: T2, Peptide-22; assay: as above
Description: as §1

[3] = target: T3, Peptide-21; assay: as above
Description: as §1

[4] = target: T4, Peptide-24; assay: as above
Description: as §1

[5] = target: T5, Peptide-15; assay: as above
Description: as §1

[6] = target: T6, Peptide-16; assay: as above
Description: as §1

[7] = target: T7, Peptide-11; assay: as above
Description: as §1

[8] = target: T8, Peptide-30; assay: ELISA, Fab on captured biotin-peptide
Description: as §1

[9] = target: T9, Peptide-46; assay: ELISA, Fab on captured biotin-peptide
Description: as §1

[10] = target: T10, Peptide-29; assay: ELISA: biotinylated peptide captured on neutravidin plate, Fab titrated, HRP secondary antibody
Description: as §1

[11] = target: T11, Peptide-25; assay: ELISA, Fab on captured biotin-peptide; Table 19 peptide set (separate ELISA run)
Description: as §1

[12] = target: T11, Peptide-25; assay: ELISA, Fab on captured biotin-peptide; Table 18 peptide set (separate ELISA run)
Description: as §1

[13] = target: T12, Peptide-58; assay: ELISA, Fab on captured biotin-peptide
Description: as §1

[14] = target: T13, Peptide-44; assay: ELISA, Fab on captured biotin-peptide
Description: as §1

Row | binding result [1] | binding result [2] | binding result [3] | binding result [4] | binding result [5] | binding result [6] | binding result [7] | EC50 [8] | EC50 [9] | binding result [10] | EC50 [11] | EC50 [12] | EC50 [13] | EC50 [14] | Binder
1 | binds | binds | binds | binds | binds | binds | binds | 9.1 nM | 668 nM | – | – | – | – | – | TBD-1 wt (Fab, V domains shown, Fab; the heavy chain entry is VH-CH1; also called wild-type anti-TROP2 Fab (hRS7); TROP2 Fab) VH: QVQLQQSGSELKKPGASVKVSCKASGYTFTNYGMNWVKQAPGQGLKWMGWINTYTGEPTYTDDFKGRFAFSLDTSVSTAYLQISSLKADDTAVYFCARGGFGSSYWYFDVWGQGSLVTVSS VL: DIQLTQSPSSLSASVGDRVSITCKASQDVSIAVAWYQQKPGKAPKLLIYSASYRYTGVPDRFSGSGSGTDFTLTISSLQPEDFAVYYCQQHYITPLTFGAGTKVEIKR
2 | – | – | – | – | – | – | – | – | – | binds | 453 nM | 1000 nM | 10.7 nM | 112 nM | TBD-11 (HC R98A) (Fab, V domains shown, Fab; also called HC R98A mutant) VH: QVQLQQSGSELKKPGASVKVSCKASGYTFTNYGMNWVKQAPGQGLKWMGWINTYTGEPTYTDDFKGRFAFSLDTSVSTAYLQISSLKADDTAVYFCAAGGFGSSYWYFDVWGQGSLVTVSS VL: DIQLTQSPSSLSASVGDRVSITCKASQDVSIAVAWYQQKPGKAPKLLIYSASYRYTGVPDRFSGSGSGTDFTLTISSLQPEDFAVYYCQQHYITPLTFGAGTKVEIKR
3 | – | – | – | – | – | – | – | – | 102 nM | – | – | – | – | – | TBD-6 (LC I93A) (Fab, V domains shown, Fab; also called LC I93A mutant) VH: QVQLQQSGSELKKPGASVKVSCKASGYTFTNYGMNWVKQAPGQGLKWMGWINTYTGEPTYTDDFKGRFAFSLDTSVSTAYLQISSLKADDTAVYFCARGGFGSSYWYFDVWGQGSLVTVSS VL: DIQLTQSPSSLSASVGDRVSITCKASQDVSIAVAWYQQKPGKAPKLLIYSASYRYTGVPDRFSGSGSGTDFTLTISSLQPEDFAVYYCQQHYATPLTFGAGTKVEIKR
